B1: Full-length WzzB polysaccharide co-polymerase of E. coli (natural protein, E. coli K12, UniProt P76372 1-326, looked up)
chain: MRVENNNVSGQNHDPEQIDLIDLLVQLWRGKMTIIISVIVAIALAIGYLAVAKEKWTSTAIITQPDVGQIAGYNNAMNVIYGQAAPKVSDLQETLIGRFSSAFSALAETLDNQEEREKLTIEPSVKNQQLPLTVSYVGQTAEGAQMKLAQYIQQVDDKVNQELEKDLKDNIALGRKNLQDSLRTQEVVAQEQKDLRIRQIQEALQYANQAQVTKPQIQQTGEDITQDTLFLLGSEALESMIKHEATRPLVFSPNYYQTRQNLLDIESLKVDDLDIHAYRYVMKPMLPIRRDSPKKAITLILAVLLGGMVGAGIVLGRNALRNYNAK
notes: WzzB, polysaccharide co-polymerase (O-antigen chain length regulator), amplified from E. coli K12 genomic DNA; full-length gene; Integral membrane protein in a DDM micelle; The 8×His tag is non-cleavable (modified pWaldo vector); About 25% of the particles are dimers of the octamer; also called native protein; polysaccharide co-polymerase (PCP) Wzz; source: E. coli C41, membranes solubilized with …
B2: N-terminal truncated WzzB, missing residues 1-15 (truncated E16M variant) (domain or fragment, E. coli K12, UniProt P76372 16-326, looked up)
chain: MQIDLIDLLVQLWRGKMTIIISVIVAIALAIGYLAVAKEKWTSTAIITQPDVGQIAGYNNAMNVIYGQAAPKVSDLQETLIGRFSSAFSALAETLDNQEEREKLTIEPSVKNQQLPLTVSYVGQTAEGAQMKLAQYIQQVDDKVNQELEKDLKDNIALGRKNLQDSLRTQEVVAQEQKDLRIRQIQEALQYANQAQVTKPQIQQTGEDITQDTLFLLGSEALESMIKHEATRPLVFSPNYYQTRQNLLDIESLKVDDLDIHAYRYVMKPMLPIRRDSPKKAITLILAVLLGGMVGAGIVLGRNALRNYNAK
notes: WzzB of E. coli K12 missing the first 15 amino acids; a start codon was introduced at position 16 (E16M); Same vector and non-cleavable C-terminal 8×His tag as m1; Virtually all particles are dimers of octamers; also called N-terminally truncated WzzB; N-terminally truncated variant; source: E. coli C41, membranes solubilized with 1% DDM, purified (Ni-NTA, Superdex 200 SEC); not shown: 8×His, …

Target: the molecule itself
Experiment: cryo-EM structure; single-particle analysis of SEC population 1 in DDM (25 mM TRIS pH 8.0, 100 mM NaCl, 3% glycerol, 0.5 mM TCEP, 0.02% DDM), 3.0 mg/mL; protomers to octamer; maps with C1 and C8 symmetry

| Protein | stoichiometry N |
| --- | --- |
| B1 | 8 |
| B2 | 8 |

From article PMC7809406, “Structure of a full-length bacterial polysaccharide co-polymerase” (Nature Communications, 2021)
